Source: article PMC4494967

Key:
FBXW7 = FBXW7 (UniProt Q969H0); assay: anti-myc IP, anti-HA blot; conditions: reference: myc-CCDC6 wild type; sites S359,S413,T427
USP7 = USP7 (UniProt Q93009); assay: anti-myc IP, western blot; conditions: reference: myc-CCDC6 wild type; sites S359,S413,T427

For “CCDC6 (from UniProt Q16204) triple mutant S359A/S413A/T427A (TM)”, the “binding against the reference” value (FBXW7) was “weaker” and the “binding against the reference” value (USP7) was “stronger”.
